Data on 7 molecules can be found in paper PMC8276246, “Unlimited Cooperativity of Betatectivirus SSB, a Novel DNA Binding Protein Related to an Atypical Group of SSBs From Protein-Primed Replicating Bacterial Viruses”.

For data set [1], the system named is B35SSB (Bacillus phage Bam35 (betatectivirus)). The data set is described as follows: EMSA. Conditions: EMSA: 50 mM Tris-HCl pH 7.5, 50 mM NaCl, 1 mM DTT, 4% glycerol, 0.1 mg/ml BSA, 0.05% Tween 20, 1 mM EDTA, 10 min at 4 C, 2 nM labeled probe.
Another data set has as its target EcoSSB (Escherichia coli, UniProt P0AGE0 1-178). The data set can be described thus: EMSA; 1 uM protein; EMSA: 50 mM Tris-HCl pH 7.5, 50 mM NaCl, 1 mM DTT, 4% glycerol, 0.1 mg/ml BSA, 0.05% Tween 20, 1 mM EDTA, 10 min at 4 C; 2 nM labeled probe. Conditions: chain copies: 4; label: 5' 32P.
Data set [2] has as its target T1, Φ29 terminal protein (Φ29TP) (Bacillus phage Φ29, UniProt P03681 1-266).
T1 sequence: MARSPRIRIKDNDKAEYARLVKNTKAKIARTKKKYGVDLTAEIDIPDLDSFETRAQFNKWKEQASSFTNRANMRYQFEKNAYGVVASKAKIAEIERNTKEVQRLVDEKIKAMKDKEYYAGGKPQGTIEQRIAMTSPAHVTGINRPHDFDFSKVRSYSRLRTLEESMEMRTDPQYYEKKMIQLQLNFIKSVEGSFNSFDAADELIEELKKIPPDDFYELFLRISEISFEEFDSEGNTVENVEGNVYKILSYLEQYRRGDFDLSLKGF
The data set is described as follows: EMSA; 20 nM protein; EMSA: 50 mM Tris-HCl pH 7.5, 50 mM NaCl, 1 mM DTT, 4% glycerol, 0.1 mg/ml BSA, 0.05% Tween 20, 1 mM EDTA, 10 min at 4 C; 2 nM labeled probe. Conditions: label: 5' 32P on strand 1; blunt. Background: In EMSA bound probe runs differently from free probe, usually more slowly.

Sequence of EcoSSB (P0AGE0 whole entry): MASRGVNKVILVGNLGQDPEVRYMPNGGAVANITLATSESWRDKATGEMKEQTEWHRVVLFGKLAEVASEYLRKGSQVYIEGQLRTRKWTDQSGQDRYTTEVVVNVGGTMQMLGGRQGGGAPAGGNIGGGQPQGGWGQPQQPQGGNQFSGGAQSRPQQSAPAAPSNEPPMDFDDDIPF

On to “ACTGGCCGTCGTTCTATTGTACTCACTGTGATC [33-mer]”, for which the binding signal in data set [1] (500 nM protein (25% bound at 250 nM)) is 50 % bound.

In the case of “GAAAAUAAAAAUAAACUGGACAAUUAAGGAUCCUGUACAAGUCGACGCGG [RNA-50mer]”, the binding signal in data set [1] (5 uM protein) turned out to be 10 % bound. GATCACAGTGAGTAC [15-mer] gave a binding signal in data set [1] (1 uM protein, minor smear) below 10 % bound. For the molecule “GGCCCATATGTACCCATACGACGTCCCAGACTACGCTGGGACGGGGAGCGGGGCCAGTAAACTACTGACTGCGCAAGAGG [80-mer]”, the binding signal in data set [1] (250 nM protein) stood at 70 % bound.

B1: 50-mer (ssDNA)
DNA: GAAAATAAAAATAAACTGGACAATTAAGGATCCTGTACAAGTCGACGCGG
Regarding B1, in the data set with EcoSSB, the binding result is reported as “binds”.

B2: 50-mer dsDNA (dsDNA)
DNA 1: GAAAATAAAAATAAACTGGACAATTAAGGATCCTGTACAAGTCGACGCGG
DNA 2: CCGCGTCGACTTGTACAGGATCCTTAATTGTCCAGTTTATTTTTATTTTC
For B2, in data set [2], the binding result is listed as “binds”.

B3: RNA-50mer (ssRNA)
RNA: GAAAAUAAAAAUAAACUGGACAAUUAAGGAUCCUGUACAAGUCGACGCGG
With B3, the binding result in the data set with EcoSSB is “binds”.
